From patent publication US20230250190A1 (published 2023)

T1: T3 (Tn-MUC1) (PAPGST(α-GalNAc)APPAHGVTSAPDTRPAPG-OH)
T1 peptide: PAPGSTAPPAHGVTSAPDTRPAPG

T2: T4 (Tn-MUC1) (PAPGSTAPPAHGVT(α-GalNAc)SAPDTRPAPG-OH)
T2 peptide: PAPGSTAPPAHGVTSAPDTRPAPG

T3: T9 (Tn-MUC1) (PAPGSTAPPAHGVT(α-GalNAc)S(α-GalNAc)APDTRPAPG-OH)
T3 peptide: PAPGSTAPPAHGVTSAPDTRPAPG

T4: T11 (Tn-MUC1) (PAPGSTAPPAHGVT(α-GalNAc)SAPDT(α-GalNAc)RPAPG-OH)
T4 peptide: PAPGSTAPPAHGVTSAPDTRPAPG

T5: T8 (Tn-MUC1) (PAPGST(α-GalNAc)APPAHGVTSAPDT(α-GalNAc)RPAPG-OH)
T5 peptide: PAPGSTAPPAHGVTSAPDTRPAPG

T6: S11 (sTn-MUC1) (PAPGSTAPPAHGVT(Neu5Ac-α(2-6)-GalNAc)SAPDT(Neu5Ac-a(2-6)-GalNAc)RPAPG-OH)
T6 peptide: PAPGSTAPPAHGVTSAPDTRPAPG

T7: S9 (sTn-MUC1) (PAPGSTAPPAHGVT(Neu5Ac-α(2-6)-GalNAc)S(Neu5Ac-a(2-6)-GalNAc)APDTRPAPG-OH)
T7 peptide: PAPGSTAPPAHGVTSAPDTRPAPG

T8: S4 (sTn-MUC1) (PAPGSTAPPAHGVT(Neu5Ac-α(2-6)-GalNAc)SAPDTRPAPG-OH)
T8 peptide: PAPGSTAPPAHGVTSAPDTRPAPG

T9: T7 (Tn-MUC1) (PAPGS(α-GalNAc)T(α-GalNAc)APPAHGVTSAPDTRPAPG-OH)
T9 peptide: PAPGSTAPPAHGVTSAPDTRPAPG


Experiments:
Assay in all cases: glycopeptide array
[1] = biological target: T1, T3 (Tn-MUC1)
[2] = biological target: T2, T4 (Tn-MUC1)
[3] = biological target: T3, T9 (Tn-MUC1)
[4] = biological target: T4, T11 (Tn-MUC1)
[5] = biological target: T5, T8 (Tn-MUC1)
[6] = biological target: T6, S11 (sTn-MUC1)
[7] = biological target: T7, S9 (sTn-MUC1)
[8] = biological target: T8, S4 (sTn-MUC1)
[9] = biological target: T9, T7 (Tn-MUC1)

Binder | EC50 [1] [µg/mL] | EC50 [2] [µg/mL] | EC50 [3] [µg/mL] | EC50 [4] [µg/mL] | EC50 [5] [µg/mL] | EC50 [6] [µg/mL] | EC50 [7] [µg/mL] | EC50 [8] [µg/mL] | EC50 [9] [µg/mL]
SEQ ID NO 78 (bivalent monospecific MUC1 IgG) (antibody, V domains shown) VH: QVQLVQSGAEVKKPGTSVKVSCKASGYSFIHYYIHWVRQAPGQGLEWVGVINPFDGSTNYAQKFQGRVTVTRDTSTSAVFMDLSSLRSEDTAVYYCARDNMIGYVLFDYWGQGTLVTVSS VL: not shown | 37.9 | 0.034 | 0.032 | 0.041 | 0.032 | 0.477 | 0.067 | 0.039 | –
SEQ ID NO 9 (bivalent monospecific MUC1 IgG) (antibody, V domains shown) VH: QVQLVQSGAEVKKPGASVKVSCKASGYTFNRHYIQWVRQAPGQGLEWMGTINPYDGSTHYAQKFQGRVTLTRDTSTTTVYMELSSLRSEDTAVYYCARDYMIGYVVFDYWGQGTLVTVSS VL: not shown | 21.6 | 0.031 | 0.039 | 0.041 | 0.034 | 0.053 | 0.046 | 0.031 | 64
SEQ ID NO 45 (bivalent monospecific MUC1 IgG) (antibody, V domains shown) VH: QVQLVESGTEVKKPGASVKVSCKASGYSFIHYYIHWVRQAPGRGLEWMGVINPFDGSTNSAQNFQGRVTVTRDTSTSTVFMDLSSLRSEDTAVYYCARDNMLGYVLFDHWGQGTLVTVSS VL: not shown | 52.2 | 0.084 | 0.083 | 0.093 | 0.088 | 4.06 | 0.135 | 0.089 | –
